The source of these data is patent US20110124572A1, “SYNDECAN-4 IS A REGULATOR OF RAC1-GTP” (priority 2008, published 2011).

Numbering of substitutions follows the chain as printed. Several values for one entry are separate records, joined by “and”; a condition that tells them apart may be missing. Identical values can stand only once.

Test [1] relates to GTP-Rac/Cdc42-PAK complex. Nature of the test: Pull-down of syndecan-4 by Rac1/CDC42-binding domain of PAK. The arrangement: species or system human. The settings on record: PAK-PKB pull-down, no γ-S GTP. As to the method: (§1) Rac1 activity was characterised by applying RAC-activation kit purchased from Millipore (Upstate) and it was used according to the manufacturer's prescription. Briefly, p21-binding domain of PAK-1 was fused to agarose beads, which specifically binds to and precipitates Rac-GTP and Cdc42-GTP from cell lysates. Cells were harvested at 70% confluency of 25 ml flasks. The wild type Syndecan-4, Ser179Ala and Ser179Glu cells were treated for 60 minutes with 1 μM PMA (Sigma-Aldrich), or 500 nM rottlerin (Sigma-Aldrich), or 10 nM Gö6976 (Biosource, Camarillo, Calif., USA). The active Rac1 was detected by Western blotting using mouse anti-Rac1 antibody (Upstate). To test whether GST-Pak1-Rac/Cdc42-binding domain could pull syndecan-4 down, the blot was probed with rabbit polyclonal anti-syndecan-4 or mouse monoclonal anti-GFP antibody.
We tested whether the protein complex pulled down with the Rac1/CDC 42-binding domain of PAK (PAK-PKB) used in the Rac1 assay contained syndecan-4. Parallel filter of the Rac1 assay was probed with anti-syndecan-4 or anti-GFP antisera. The syndecan-4-GFP monomers migrating with 55 kDa relative electrophoretic mobility gave strong signals (FIG. 6). The amount of pulled-down syndecan-4 was in accordance with Rac1 level detected in the different syndecan-4 constructs (FIG. 6). […] When γ-S GTP was applied to the cell lysates to equalize the pulled-down Rac1-GTP level there was no difference in the amount of pulled-down syndecan-4 variants (FIG. 6). So, the affinity of the different syndecan-4 mutants is the same to the GTP-Rac/Cdc42-PAK complex. […]
We tested syndecan-4 whether it was pulled down by the Rac1/CDC 42-binding domain of PAK (PAK-PKB) used in the Rac1 assay. The syndecan-4-GFP monomers were detected as a 55 kDa relative electrophoretic mobility band probed with anti-syndecan-4 or anti-GFP antisera. […] The amount of pulled-down syndecan-4 was in accordance with Rac1 level detected in the different syndecan-4 constructs (FIG. 6). […]

In test [2] the test system is MCF-7 cells. Nature of the test: Scratch-wound assay. In kind it is cell-based, human. The conditions noted are these: for time to closure of the scratch gap: fibronectin, scratched at 80% confluence. As to the method: (§2) The MCF-7 breast adenocarcinoma cells were obtained from ATCC, cultured in DMEM:F12 (Cambrex, Walkersville, Md., USA) supplemented with 10% fetal bovine serum (FBS) (Gibco, Bethesda, Md., USA), otherwise stated. The stably transfected cell lines were propagated in DMEM:F12 medium supplemented with 10% FBS and 200 μg/ml G418 (Cambrex, Walkersville, Md., USA). The cell lines were seeded onto glass coverslips or plastic dishes coated for 2 h with 10 μg/ml fibronectin (Sigma-Aldrich, St. Louis, Mo., USA). Scratch-wound assays were performed on stable transfected Syndecan-4 wild, Ser179Ala and Ser179Glu cells at 80% confluency. The cultures were scratched with a sterile P10 pipette tip 3-4 times in parallel lines. Images were taken 12, 24, 36 and 48 h following wounding.
The wt-syndecan-4, Ser179Ala, and Ser179Glu lines were tested how they close the scratched wound on fibronectin substratum. At 80% confluence the cultures were scratch-wounded and healing was monitored. Still images were captured at the indicated time points (FIG. 1). In monolayers of the wt-syndecan-4 and the Ser179Ala lines the wounds healed from the edges, i.e. progenies of cell division narrowed the scratch but kept tight contact with the cell layer. […] The gaps closed in every case almost at the same time, in 42 hour. There was no difference in the growth rate of the different lines measured by SRB assay (data not shown).

In test [3] the test system is MCF-7 cells. Nature of the test: Cell migration assay (time-lapse) on fibronectin. In kind it is cell-based, human. The conditions noted are these: MCF-7 line expressing the syndecan-4 variant, fibronectin. As to the method: as §2
In the cell migration assay 60% confluent MCF7 cells or the stably transfected lines were stimulated by 1 μM phorbol-12-myristate-13-acetate (PMA; from Sigma-Aldrich St. Louis, Mo., USA), otherwise stated. The images were taken using 10×, 20×0.3 objective at 3-min intervals for 2 h using inverted microscope (Leica) and organized into time-lapse movies in Adobe ImageReady® v. 8.
Results of the previous scratch-wound assay gave a hint that the Ser179Glu cells gained a migratory phenotype. […]

Another test deals with Rac1. Nature of the test: Rac1 GTPase pulldown assay (Rac1-GTP level). The conditions noted are these: for relative Rac1-GTP level: relative to non-treated wt-syndecan-4; for reduction of activated Rac1 (GTP-Rac1) level: Gö6976 treatment. The format is cell-based, human. As to the method:
as §1

The target in a further test is T1, Tiam-1 (Homo sapiens, UniProt Q13009).
T1 construct: we tested whether syndecan-4 can be co-immunoprecipitated by anti-Tiam-1; endogenous in cells; host or cells: MCF-7 lines expressing wt, Ser179Ala or Ser179Glu syndecan-4-GFP (RIPA lysates, GDP- or γ-S-GTP-saturated)
Nature of the test: Immunoprecipitation with anti-Tiam-1. The format is binding. The settings on record: for Rac1 in the Tiam-1 precipitate: lysate of cells expressing the variant. As to the method:
In brief, 70% confluent cultures of 25 mL flask were detached, pelleted and following 2 times washing with PBS. The pellet were lysed in RIPA buffer then centrifuged and the supernatant was pre-cleared by addition of 5 μL of protein A/G-sepharose beads slurry (Pierce) for 2 hours, then the supernatant was incubated with the antibody of interest for 24 hours. 10 μL of protein A/G slurry was added for 2 hours, collected by pulse centrifugation, washed 3 times with lysis buffer, resuspended in 2×SDS loading buffer subjected to SDS-PAGE, followed by immunoblotting with the appropriate antibodies.
Since Tiam-1 is a Rac1-GEF (GTP exchange factor) and it could be pulled down by PAK-PKB (Mendoza-Naranjo et al., 2006) we tested whether syndecan-4 can be co-immunoprecipitated by anti-Tiam-1. The syndecan-4 chimeras were detected by anti-syndecan-4 and anti-GFP antisera at 55 kDa and 90 kDa length, which were correspondent to the monomer and dimmer forms, respectively. Because the co-sedimentation of syndecan-4 by PAK-PKB was GDP-GTP dependent we tested if the GDP or GTP had effect for the amount of the anti-Tiam-1-co-immunoprecipitated syndecan-4 forms.
PDZ domain of Tiam-1 was reported to bind peptides containing amino acid sequence of FYA (Songyang et al., 1997) that is part of the cytoplasmic segment of syndecan-4. Therefore syndecan-4 seemed a good candidate to interact with Tiam-1. In the immunoprecipitate of Tiam-1 syndecan-4 variants were detected by anti-syndecan-4 or anti-GFP antisera at 55 kDa length, which was correspondent to the monomer forms. There was no significant difference in the binding of Tiam-1 and syndecan-4 variants in the GDP or γ-S GTP saturated cases.
Considering that phospho-syndecan-4 down-regulates the Rac1 activity consequently Rac1 was also tested in the Tiam-1 precipitate to study the nature of inhibition. If the Rac1 activity were regulated by direct interaction of syndecan-4 we might expect a trapped intermedier as it was found in the case of Brefeldin A (Renault et al., 2003).

T1 sequence (Q13009 whole entry): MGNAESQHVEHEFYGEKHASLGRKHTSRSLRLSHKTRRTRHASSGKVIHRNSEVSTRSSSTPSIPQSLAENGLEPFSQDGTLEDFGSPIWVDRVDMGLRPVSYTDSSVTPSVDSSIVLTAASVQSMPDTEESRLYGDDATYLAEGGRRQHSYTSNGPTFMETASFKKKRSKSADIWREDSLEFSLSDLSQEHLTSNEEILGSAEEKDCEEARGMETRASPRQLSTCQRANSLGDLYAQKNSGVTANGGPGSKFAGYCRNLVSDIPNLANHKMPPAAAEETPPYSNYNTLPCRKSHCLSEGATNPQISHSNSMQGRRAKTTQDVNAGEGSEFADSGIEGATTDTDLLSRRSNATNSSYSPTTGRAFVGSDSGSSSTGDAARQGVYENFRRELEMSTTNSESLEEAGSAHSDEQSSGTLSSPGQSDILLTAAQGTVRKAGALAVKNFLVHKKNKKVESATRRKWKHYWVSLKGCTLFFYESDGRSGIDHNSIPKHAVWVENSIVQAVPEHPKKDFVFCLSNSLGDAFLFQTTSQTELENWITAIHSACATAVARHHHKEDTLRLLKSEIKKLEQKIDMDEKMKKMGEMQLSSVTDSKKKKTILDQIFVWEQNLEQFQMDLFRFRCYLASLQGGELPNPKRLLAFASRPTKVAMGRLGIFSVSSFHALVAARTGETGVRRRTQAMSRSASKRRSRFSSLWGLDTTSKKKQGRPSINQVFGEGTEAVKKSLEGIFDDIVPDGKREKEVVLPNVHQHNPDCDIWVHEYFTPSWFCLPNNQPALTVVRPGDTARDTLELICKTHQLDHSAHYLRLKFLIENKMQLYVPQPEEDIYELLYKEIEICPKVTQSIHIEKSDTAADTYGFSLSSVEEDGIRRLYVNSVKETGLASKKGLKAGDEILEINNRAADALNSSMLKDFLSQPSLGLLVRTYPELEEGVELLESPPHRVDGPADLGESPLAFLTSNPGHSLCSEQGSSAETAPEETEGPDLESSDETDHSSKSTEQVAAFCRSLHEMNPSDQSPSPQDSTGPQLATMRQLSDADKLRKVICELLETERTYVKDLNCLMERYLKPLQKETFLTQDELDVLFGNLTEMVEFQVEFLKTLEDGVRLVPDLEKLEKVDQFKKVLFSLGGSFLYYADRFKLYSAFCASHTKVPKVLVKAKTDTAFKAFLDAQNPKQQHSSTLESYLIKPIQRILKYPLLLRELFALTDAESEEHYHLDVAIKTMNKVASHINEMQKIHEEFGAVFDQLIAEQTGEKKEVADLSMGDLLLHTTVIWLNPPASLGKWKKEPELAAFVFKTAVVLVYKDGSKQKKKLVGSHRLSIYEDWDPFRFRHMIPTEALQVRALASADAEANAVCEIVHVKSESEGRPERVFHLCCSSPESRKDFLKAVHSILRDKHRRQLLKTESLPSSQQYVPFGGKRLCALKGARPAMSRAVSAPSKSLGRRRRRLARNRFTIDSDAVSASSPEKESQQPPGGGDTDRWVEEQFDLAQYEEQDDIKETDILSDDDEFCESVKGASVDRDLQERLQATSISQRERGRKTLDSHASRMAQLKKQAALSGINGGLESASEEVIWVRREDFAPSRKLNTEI

B1: wt-syndecan-4: human syndecan-4 with GFP inserted at position 131, stably expressed in MCF-7 cells (protein)
chain: ESIRETEVIDPQDLLEGRYFSGALPDDEDVVGPGQESDDFELSGSGDLDDLEDSMIGPEVVHPLVPLDNHIPERAGSGSQVPTEPKKLEENEVIPKRISPVEESEDVSNKVSMSSTVQGSNIFERTEVLAALIVGGIVGILFAVFLILLLMYRMKKKDEGSYDLGKKPIYKKAPTNEFYA
modifications: left off: large carriers
notes: human syndecan-4 with GFP inserted at position 131, stably expressed in MCF-7 cells
For B1, the “amount of pulled-down syndecan-4, less than from the Ser179Ala line” value in test [1] was “approximately 20%”. The “time to closure of the scratch gap” value with MCF-7 cells [2] worked out at 42 h. Moreover, the migration in the test with MCF-7 cells [3] (1 μM PMA) was 0.3±0.1 μm/min and 0.3 μm/min. The “relative Rac1-GTP level” value in the test with Rac1 (10 nM Gö6976 60 min) was 0.25 ± 0.03; with Rac1 (1 μM PMA 60 min), 0.25 and 0.25 ± 0.05; in the test on Rac1 (nt (non-treated)) it was 1. For the same molecule, in the test with Rac1, the “reduction of activated Rac1 (GTP-Rac1) level” value is given as 4.2±0.4 fold. The “syndecan-4 form co-immunoprecipitated by anti-Tiam-1” value with Tiam-1 (cell lysate saturated by GDP) is recorded as “dominant”. Besides, the “Rac1 in the Tiam-1 precipitate” value with Tiam-1 is listed as “observed”.

B2: Ser179Ala: phosphodefective Ser179 to Ala mutant of human syndecan-4-GFP, expressed in MCF-7 cells (protein, UniProt P31431 19-198, looked up, variant S179A)
Syndecan-4: B1 chain with S161A
modifications: GFP inserted at position 131
notes: phosphodefective Ser179 to Ala mutant of human syndecan-4-GFP, expressed in MCF-7 cells
As for B2, in test [1], the “amount of pulled-down syndecan-4, more than the wt-syndecan-4” value is on record as “approximately 20%”. Further, the “time to closure of the scratch gap” value with MCF-7 cells [2] was 42 h. In addition, the “relative Rac1-GTP level” value was 1±0.1 and 1 ± 0.01 in the test on Rac1 (10 nM Gö6976 60 min); 0.46 ± 0.05 in the test with Rac1 (1 μM PMA 60 min); 1.9±0.15 in the test with Rac1 (nt (non-treated)). In addition, the “syndecan-4 form co-immunoprecipitated by anti-Tiam-1” value in the test with Tiam-1 (cell lysate saturated by GDP) was “dominant”. The “Rac1 in the Tiam-1 precipitate” value with Tiam-1 is “observed”.

B3: Ser179Glu: phosphomimetic Ser179 to Glu mutant of human syndecan-4-GFP, expressed in MCF-7 cells (protein, UniProt P31431 19-198, looked up, variant S179E)
Syndecan-4: B1 chain with S161E
modifications: GFP inserted at position 131
notes: phosphomimetic Ser179 to Glu mutant of human syndecan-4-GFP, expressed in MCF-7 cells
As for B3, the “amount of pulled-down syndecan-4” value in test [1] is “hardly detectable”. In the test with MCF-7 cells [2] (by 12 hours following wounding), the “cell motility in the scratched area” value is “enhanced cell motility”. Also, the “time to closure of the scratch gap” value in the test with MCF-7 cells [2] is 42 h. In the test with MCF-7 cells [3] (nt (non-treated)), this molecule gave a migration of 0.4±0.1 μm/min. For the same molecule, the “relative Rac1-GTP level” value in the test with Rac1 (10 nM Gö6976 60 min) is 0.06 ± 0.02; in the test with Rac1 (1 μM PMA 60 min), 0.9±0.2 and 0.95 ± 0.06; in the test with Rac1 (nt (non-treated)) it was 0.6±0.1. In addition, the “reduction of activated Rac1 (GTP-Rac1) level” value in the test with Rac1 is given as 16±2 fold. Further, in the test on Rac1 (expression of the variant, untreated), the “decrease of the Rac1-GTP level” value was 1.5 fold. Moreover, in the test with Tiam-1 (γ-S GTP saturated lysate), the “syndecan-4 form co-immunoprecipitated by anti-Tiam-1” value was “detected abundantly”.
